Experimental data: the supplement of paper PMC10567573

B1: TIA1 (parent)
chain: TYECRCIGEEKEMWNFGEKYARF

Variants of: B1
Experiment: protein stability index of a GFP-peptide fusion (GPS, HEK-293T) (PSI 1-6); higher = more stable
Details: c terminus: native
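Further: lentivirally expressed fusions sorted by FACS into six bins by GFP to DsRed ratio, PSI derived from sequencing read proportions per bin multiplied by bin number.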

Protein stability index, by site and new letter:
K11: C 3.31; S 1.98; L 1.5; N 2.69; Q 1.84; A 3.42; W 1.83; G 2.62; T 3.28; R 1.57; F 1.53; E 2.54; V 2.57; M 1.88; H 1.78; P 2.02; D 2.38; Y 2.17; I 1.3
A21: L 2.19; R 2.71; E 3.16; K 2.8; C 1.89; M 1.99; G 2.11; P 3.79; W 2.42; V 2.37; S 1.97; T 1.44; D 3.1; I 2.72; F 2.02; H 3.06; Y 1.89; Q 2.04
G17: Q 2.1; Y 1.7; K 1.98; F 1.81; T 2.89; P 2.15; N 3.29; C 1.75; H 2; L 2.35; S 1.72; D 3.11; V 2.03; I 1.16; E 2.16; R 2.1; W 2.2; A 2.27; M 1.86
F16: M 3; D 2.78; C 2.42; E 2.9; L 1.74; K 2.44; S 2.66; A 2.43; G 2.29; Y 2.2; H 2.26; R 2.14; P 1.91; T 3; I 1.57; V 2.45; W 1.77; N 1.85
C4: Q 1.67; A 3.13; K 3.16; N 2.31; H 3.33; P 3.81; V 1.88; L 2.85; F 2.28; W 1.91; T 2.31; M 2.62; Y 1.93; I 2.31; E 2.2; R 2.31; S 2.01
R5: Y 1.35; K 2.3; V 2.46; H 2.62; A 1.66; N 2.86; F 2.1; S 2.54; I 2.8; L 2.29; E 2.02; W 1.98; D 3.07; G 2.93; T 2.31; Q 1.73; P 3.48; C 1.97
N15: E 2.37; G 2; C 1.96; L 2.37; P 2.25; Q 1.42; M 1.43; Y 1.56; S 2.13; V 2.3; H 2.33; T 1.92; D 2.04; K 1.86; I 2.02; F 2.46; W 2.77
E18: H 2.97; M 1.81; Y 1.89; N 1.79; S 1.97; I 2.3; K 2.49; L 1.94; Q 1.8; V 3; T 1.67; F 2.24; P 1.65; C 2.41; D 2.22; A 1.27; W 3.12
M13: Q 1.71; N 2.31; H 2.24; W 3.09; K 1.87; P 2.19; Y 1.56; A 1.74; I 2.07; D 2.19; R 2.11; T 2.18; F 1.23; S 1.98; V 2.03; G 2.61; L 2.48; C 2.14
E12: C 2.08; G 2.71; D 1.91; S 2.21; K 1.4; W 2.5; H 2.03; Y 1.3; M 1.88; L 2.33; F 3.56; I 1.39; P 2.35; V 1.59; Q 2.3; T 2.19; R 1.42; N 2.08
K19: Y 4.2; S 2.27; E 3.18; R 2.44; M 1.29; Q 2.41; P 3.04; I 1.62; A 1.65; D 3.32; C 1.85; V 1.76; G 2.51; F 2.16; T 2.06; L 1.59
E3: R 1; N 1.98; S 1.94; H 1.8; P 2.47; L 2.42; Y 2.18; M 2.49; T 3.76; K 1.66; Q 2.61
Y20: M 3.19; F 2.86; T 2.61; I 1.7; L 1.54; H 3.71; A 2.58; W 2.31; K 3.52; V 3.04; Q 4; N 2.26; D 3.16; C 1.81; S 3.24; G 3.89; P 1.11; E 3.6
E9: K 2.49; P 1.82; R 1.88; Q 2.46; H 1.74; S 1.84; W 1.74; Y 1.85; M 1.33; F 1.81; V 1.92; I 1.89; A 1.85; D 2.28; C 2.1; G 2.09; N 2.29; T 1.61; L 3.02
I7: T 2.98; D 2.87; E 3.42; H 3.01; F 2.12; Y 2.3; M 1.72; S 2.16; K 2.18; R 1.8; P 3.87; N 2.66; L 1.98; Q 3.02; G 3; V 1.76
G8: R 3.32; Y 2.37; I 2.04; N 2.28; V 2.65; C 1.6; A 2.54; F 2.01; H 1.46; P 2.14; K 2.18; D 1.58; T 2.47; S 1.98
C6: Q 3.9; I 2.89; N 3.44; G 3.94; P 3.72; E 4.37; A 2.92; M 1.84; L 1.56; K 3.64; W 1.53; F 3.08; T 3.1; Y 2.14; H 3.75; R 3.38; S 3.8; D 4.2
W14: L 1.64; M 2.27; Y 2.65; Q 2.24; T 2.22; V 2.34; P 2.31; G 2.88; F 2.39; D 2.61; K 1.6; N 2.1; S 2.98; H 2.49; I 2.28; E 2.51; A 2.14; C 2.17
R22: C 1.36; N 3.1; E 3.2; F 2.23; M 1.51; A 1.79; G 2.63; L 1.01; D 3.77; K 3.59; H 2.82
E10: T 1.43; H 2.49; W 2.52; N 1.83; L 2.25; Q 1.71; V 1.58; A 2.85; C 2.25; I 2.56; D 1.99; G 1.86; S 2.23; P 2.12
